Experimental data as given in the RNAGym collection of RNA variant scans (doi:10.1073/pnas.2313332121).
Fewer inactive variants are shown than the library holds.

B1: TPR 5TU (parent)
chain: GGAUCUUCUCGAUCUAACAAAAAAGACAAAUCUGCCACAAAGCUUGAGAGCAUCUUCGGAUGCAGAGGCGGCAGCCUUCGGUGGCGCGAUAGCGCCAACGUUCUCAACUAUGACACGCAAAACGCGUGCUCCGUUGAAUGGAGUUUAUCAUG

Variants of: B1
Experiment: polymerase ribozyme fitness, log enrichment relative to wild type (log ratio); higher = more active; in vitro selection for triplet polymerase activity
Procedure, shortened: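 Frozen incubation at −7 °C formed the core of a single, triplicate in vitro selection round applied to PCR-built, transcribed mutant libraries of each subunit of a heterodimeric triplet polymerase ribozyme. Extended constructs were gel-excised, captured with streptavidin beads and amplified by RT-PCR, and input and output libraries were Illumina-sequenced with a filter of ≥10 input reads and ≥1 read per output. Fitness is the logarithm of genotype enrichment relative to wild-type enrichment, with inverse-variance-weighted replicate averaging, and the logarithm is base 2.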

Row | Variant | polymerase ribozyme fitness (log ratio)
1 | GGAGCGUCUCGAUCUAACACAAAUGACAACUCUGCCACAAAGCUUGAGAGCAUCUUCGGAUGCAGAGGCGGCAGCCUUCGGUGGCGCGAUAGCGUCAACGUUCUCAACUAUGACACGCCAAACGCGUGCUCCGUUGAAUGGAGUUUAACAUG [U4G U6G A20C A24U A30C C95U A119C U148A] | ≤ -4.2
2 | GGAUCUUCUCGAUCUAACAAAAAAGACAAAUCUGCCACAAAGCUUGAGAGCAUCUUCGGAUGCAGAGGCGGCAGCCUUCGGUGGCGCGAUAUCGUCAACGUUCUCAACUAUGACACGCAAAACGCGUGCUCCGUUGAAUGGAGUUUGACAUG [G92U C95U A147G U148A] | -3.45
3 | GGAUCUUCUCGAUCUAACAAAAAAGACAAAUCUGCCACAAAGCUUGAGAGCAUCUUCGGAUGCAGAGGCGGCAGCCUUCGGUGGCGCAAUAGGGCCAACGUUCUCAAUUAUGACACGCAUAACGCGUGCUCCGUUGUAUGGAGUUUAUCAUG [G88A C93G C108U A120U A137U] | ≤ -4.2
4 | GGAUCUUCUCGAUCUAACAAAAAAGACAAAUCUGCCACAAAGCUUGAGAGCGUCUUCGGAUGCAGAGGCGGCAGCCUUCGGUGGCGCGAUAGCGACAAAGUUCUCAACUAUGACACGCAAAACGCGUGCUCCGUUGAAUGGAGUUUAUCAUG [A52G C95A C99A] | -1.54
5 | GGAUCUUCUCGAUCUAACAAAAAAGACAAAUCUGCCACAAAGCUAGAGAGCAUAUUCGGAUGCAGAGGCGGCAGCCUUCGGUGGCGCGAUAGCGCCAACGUUCUCAACUAUGACACGCAAAACGCGUGCUCCGUUGAAUGGAGUUUAUCAUG [U45A C54A] | ≤ -4.2
6 | GGAUGUUCUCGAUCUAACAAAAAAGACAAAUCUGCCACAAAGCUUGAGAGCAUCUUCGGAUGCAGAGGCGGCAGCCCUCGGUGGCGGGAUAGCGCCAACGUUCUCAACUAUGACACGCAAAACGCGUGCUCCGGUGAAUGGAGUUUAUCAUG [C5G U77C C87G U134G] | ≤ -4.2
7 | GGAUCUUCUCGAUCUAACAAAAAAGACAAAUCUGCCACAAAGCAUGAGAGCAUCUACGGAUGCCGAGGCGGCAGCCUUCGGUGGCGCGAUUGCGCCAACGUUCUUAAGUCUGACACGCAAAACGCGUGCUCCGUGGAAUGGAGUUUAUCAUG [U44A U56A A64C A91U C105U C108G A110C U135G] | ≤ -4.2
8 | GGAUCUUCUCGAUCUAACAAAAAAGACAAAUCUGCCACAAAGCUUGAGAGCAUCUUCGGAUGCAGAGGCGGCAGCCUUUGGUGGCGCGAUAGCGCCAACGUUCUCAACUAUGACACGCAAAACGCGUGCUCCGUUGAAUGGAGUUUAUCAUG [C79U] | -1.47
9 | GGAUCUUCUCGAUCUAACAAAAAAGACAAAUCUGCCACAAAGCUUGAGAGCAUCUUCGGAUGCAGAGGCGGCAGCCUUCAGGGGCGCGAUAGCGCCAACGUUCUCAACUAUGACACGCAAAAAGCGUGCUCCGUUGAAUGGAGUUUAUCAUU [G80A U82G C123A G152U] | -4.06
10 | GGAUCUUCUCGAUCUAACAAAAAAGACAAAUCUGGCACAAAGCUUGAGAGCAUCAUCGGCUGCAGAGGCGGCAGGCUUCGGUGGCGCGAUAGCGCCAACGUUCUCAACUAUGAGACGCUAAACGCGUGCUCCGUUGAAUGGAGUUUAUCAUG [C35G U55A A60C C75G C114G A119U] | ≤ -4.2
11 | GGAUCUUCUCGAUCUAACAAAAAAGACAAAUCUGCCACAAAGCUUGAGAGCAUCUUCGGAUGCAGAGGCGGCAGCCUUCGGUGGCGCGAUAGCGCCUACGUUCUCAACUAUGACACGCAAAACGCGUGCUCCGUUGAAUGGAGAUUAUCAUG [A97U U144A] | -1.56
12 | GGAUCUUCUCGAUCUCACAAAAAAGACAAAUCUGCCACAAAGCUUGAGAGCUUCUUCGGAUGCAGAGGCGGCAGCCUUCGGUGGCGCGAUAGCGCCAACGUUCUCAACUAUGACACGCAAAACGCGUGCUCCGUUGAAUGGAGUUUAUCAUG [A16C A52U] | -2.03
13 | GGAUCUUCUCGAUCUAACAAAAAAGACAAAUCUGCCACUAAGCUUGAGAGCAUCUUCGGAUGCAGAGGCGGCAGCCUUCGGUGACGCGAUAGCGCCAACGUUCUCAACUAUGACACGCAAAAGGCGUGCUCCGUUGAAUGGAGUUUAUCAUG [A39U G84A C123G] | -2.9
14 | GGAUCUUCUCGAUCUAACAAAAAAGACAAAUCUGCCACAAAGCUUGAGAGCAUCUUCGGAUGCAGAGGCGGCAGCCUUGGGUGGUGCGAUAGCGCCAACGUUCUCAACUAUGACACGCAAAACGCGUGCUCCGUUGAAUGGAGUUUAUCAUG [C79G C85U] | -4.04
15 | GGAUCUUCUCGAUCUAACAAAAAAGACAAAUCUGCCACAAAGCUUGAGAGCAUCUUCGGAUGCAGAGGCGGCAGCCUUCGGUGACGCGAUAGCGCCAACGUUCUCAACUAUGACACGCAAAACGCGAGCUCCGUUGAAUGGAGUUUAUCAUG [G84A U127A] | -3.74
16 | GGAUCUUCUCGAUCUCACAAAAAAGACAAAUCUGCCACAAAGCUUGAGAGCAUCUUCGGUUGCAGCGGCGGCAGCUUCCGGUGGCGCGAUAGAGCCAACGUUCUCAACUAUGACACGCAAAACGCGUGCUCCGUUGAAUGGAGUUUAUCAUG [A16C A60U A66C C76U U78C C93A] | ≤ -4.2
17 | GGAUCUUCUCGAUCUAACAAAAAAGACAAAUCUGCCACAAAGCUUGAGAGCCUCUUCGGAUGCAGAGGCGGCAGCCUUCGGUGGCGCGAUAGCGCCAACGUUCUCAACUAUGACACGCAAAACGCGUGCUCCGUUGAGUGGAGUUUAUCAUG [A52C A138G] | -3.62
18 | GGAUCUUCUCGAUCUAACAAAAAAGACAAAUCUGCCACUAAGCUUGAGAGCAUCUUCGGAUGCAGAGGCGGCGGCCUUCGGUGGCGCGAUAGCGCCAACGUUCUCAACUAUGACACGCAAAACGCGUGCUCCGUUGAAUGGAGUUUAUCAUG [A39U A73G] | -2.4
19 | GGAUCUUCACGAUCUAACAAAAAAGACAAAUCUGCCACAUAGCUUGAGAGCAUCUUCGUAUGCAGAGGCGGCAGCCUUCGGUGGCGCGAUAGCGCCAACGUUCUCAACUAUGACACGCAAAACGCGUGCUCCGAUGAAUGGAGUUUAUCAUG [U9A A40U G59U U134A] | ≤ -4.2
